# Measurements from the RNAGym collection of RNA variant scans (doi:10.1073/pnas.2313332121).
# Variants at the floor of the assay were thinned out.
# B1: TPR 5TU (parent)
# chain: GGAUCUUCUCGAUCUAACAAAAAAGACAAAUCUGCCACAAAGCUUGAGAGCAUCUUCGGAUGCAGAGGCGGCAGCCUUCGGUGGCGCGAUAGCGCCAACGUUCUCAACUAUGACACGCAAAACGCGUGCUCCGUUGAAUGGAGUUUAUCAUG
# Variants of: B1
# Test: polymerase ribozyme fitness, log enrichment relative to wild type (log ratio); higher = more active; in vitro selection for triplet polymerase activity
# Method in brief: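 Mutant libraries were PCR-built and transcribed for each subunit of a heterodimeric triplet polymerase ribozyme and selected for one round in triplicate at −7 °C, frozen, before gel excision of extended constructs and streptavidin-bead capture. Input and output libraries were Illumina-sequenced, keeping genotypes with ≥10 input reads and ≥1 read per output. Fitness is a logarithmic ratio of genotype to wild-type enrichment, in base 2, using inverse-variance-weighted replicate averages.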
row,Variant,polymerase ribozyme fitness (log ratio)
1,C32G C51U G94U,≤ -4.2
2,U33A C75A A110U,≤ -4.2
3,C32U C93A,-4.11
4,U33G A60G,-2.79
5,C35A C76U G81A C96U C103A,≤ -4.2
6,G34A C43A G92U C118U,≤ -4.2
7,C32U A37C G68A G80A C87U C95G,≤ -4.2
8,C32U C38U C69A U78A C99G U101A U127C,≤ -4.2
9,G34U C54U U78G G83A C108G,-4.13
10,U33G U44A A142G,≤ -4.2
11,C35A A41C G59C C87U G100C C105G A121C,≤ -4.2
12,C32G C54U A73C C79U C87G U145G,≤ -4.2
13,C35A C76A C93A U148C,≤ -4.2
14,U33C A39U G62A G86A A107U,≤ -4.2
15,C32G G70C,≤ -4.2
16,C32U A49C U55A G81A C85U U90A A106U A121U C125A,≤ -4.2
17,G34U,-1.11
18,G34A,-0.292
19,G34C,-1.49
20,U33G C72U C95A G126U A137G,≤ -4.2
21,U33G G46C G71A U78G U90G A110C U127C G141C,≤ -4.2

row,Variant,polymerase ribozyme fitness (log ratio)
1,C32G U146A,-3.88
2,U33A G74A,≤ -4.2
3,U33G G50A A52C C76U C79U A107G U151A,≤ -4.2
4,C32U A60G A142G,-3.31
5,C32U C103U,-2.66
6,C32G A52U C99U A106G G124U C131A,≤ -4.2
7,C32U A52U U90C G128C,≤ -4.2
8,C32U A89U,-2.63
9,G34C U78C A91G U146A,≤ -4.2
10,G34A A40U U45C C69A C76A C87U G94A A106G A122U G124C U151A,≤ -4.2
11,U33G G83C,-3.6
12,G34A A41G A120U,-1.2
13,C32G C76U G88C C96A C103U U127G C129A U139A A142U,≤ -4.2
14,G34C A66G G86U A107C G141U,≤ -4.2
15,C35A C79A G83A C99A,≤ -4.2
16,U33C C36A U55A G83A A89G A142U U148C,≤ -4.2
17,U33C G59A A60U U145G,-4
18,U33G A47C U56A A73G G83U C99A,-4.05
19,C32U C54U,-1.22
20,C32G G59C G71C C85A G88A U151A,≤ -4.2
21,C32U C118U G133C,-2.99

row,Variant,polymerase ribozyme fitness (log ratio)
1,G34U C95G A115G C116U G140C U151A,-4.19
2,U33G U55C C76U G86U C105A C116U,≤ -4.2
3,C32G C87G U104G A110G A150U,≤ -4.2
4,G34A C36A A137G,≤ -4.2
5,G34U C51U G59U G88A G141U A142G U146G A147U,≤ -4.2
6,U33G A39C C54U,-3.84
7,G34A U77G C87A A91C C108U G133A,≤ -4.2
8,U33A G48A U78C G84A C105U,≤ -4.2
9,C32U A52G U77G A97C U144A,≤ -4.2
10,U33A A49C C76U G80U C149G,≤ -4.2
11,C35A A52C U77C A147C,≤ -4.2
12,C32U,-1.22
13,G34U C96G,-2.91
14,G34C G58A U77A U82G G86A C105A U127A G141C,≤ -4.2
15,U33G A40G C54U U55G A98G A147U A150C,≤ -4.2
16,C35A A66G G70U C87G C96G A121U C149U,≤ -4.2
17,G34U G58U G74U G81A U102A U104C,≤ -4.2
18,C32G C87U A107U A113C C116A,≤ -4.2
19,G34U A39U U53A A64U C116U U146G,≤ -4.2
20,G34U C95U A107G A110G,-3.86
21,U33G C43U A60U G88A U109G U135G G143A,-4.09

row,Variant,polymerase ribozyme fitness (log ratio)
1,G34U A47U,-2.01
2,U33G A52G A73G G92C A107U C114U C125U U134C G141C,≤ -4.2
3,C32G C35A,-3.92
4,U33A C96A,≤ -4.2
5,U33C A52G G70A G92A A150G,-3.87
6,C32U C51A A52U C96G G136U,≤ -4.2
7,C32G G59C C87G,≤ -4.2
8,C35A A39C G83A C114A G117A C123G G140U,≤ -4.2
9,U33G G81C G83A C87G C105A A120C A121G G143A U148A,≤ -4.2
10,C35A C54G C72A C75A G84C C114U G133U A138G,≤ -4.2
11,C35A A39C C87U G92C A138C A147G,≤ -4.2
12,C32U C36A U55G C93G G133U G141U,-4.01
13,U33A U102C A107U C125A,≤ -4.2
14,C35A A52C G67U G68C C76U A115U A120C U134C,≤ -4.2
15,C32U A49C G92U C99A A115G A147C,≤ -4.2
16,U33A U44A G46U G59A C93G C103U U104A U135A C149G,≤ -4.2
17,C35A A52C C79G C96U U127C C149A,≤ -4.2
18,C32G C99U,≤ -4.2
19,U33G C35A A66G C93U U104G C105U U134G,≤ -4.2
20,U33G U44A G46C A73G C76A C95U G133U,≤ -4.2
21,G34A C85U U101G,-3.5
